Measurements as given in US7176279.

What was measured:
hMC4-R (human) = hMC4-R (human) (UniProt P32245); test: competition with 125I-NDP-MSH, HEK 293 hMC4-R membranes, 1 µM peptide
hMC5-R (human) = hMC5-R (human) (UniProt P33032); test: competition with 125I-NDP-MSH, HEK 293 hMC5-R membranes, 1 µM peptide
hMC3-R (human) = hMC3-R (human) (UniProt P41968); test: competition with 125I-NDP-MSH, HEK 293 hMC3-R membranes, 1 µM peptide
Chain of hMC3-R (human) (P41968 whole entry): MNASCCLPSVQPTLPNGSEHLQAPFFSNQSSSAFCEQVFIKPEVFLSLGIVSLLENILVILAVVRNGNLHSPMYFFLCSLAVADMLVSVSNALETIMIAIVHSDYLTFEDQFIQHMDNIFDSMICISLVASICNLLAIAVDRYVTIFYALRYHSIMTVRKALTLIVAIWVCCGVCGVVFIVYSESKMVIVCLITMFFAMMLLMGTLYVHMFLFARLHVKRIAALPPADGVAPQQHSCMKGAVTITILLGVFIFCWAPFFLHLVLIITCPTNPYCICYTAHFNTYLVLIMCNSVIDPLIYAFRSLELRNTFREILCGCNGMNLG

Chain of hMC4-R (human) (P32245 whole entry): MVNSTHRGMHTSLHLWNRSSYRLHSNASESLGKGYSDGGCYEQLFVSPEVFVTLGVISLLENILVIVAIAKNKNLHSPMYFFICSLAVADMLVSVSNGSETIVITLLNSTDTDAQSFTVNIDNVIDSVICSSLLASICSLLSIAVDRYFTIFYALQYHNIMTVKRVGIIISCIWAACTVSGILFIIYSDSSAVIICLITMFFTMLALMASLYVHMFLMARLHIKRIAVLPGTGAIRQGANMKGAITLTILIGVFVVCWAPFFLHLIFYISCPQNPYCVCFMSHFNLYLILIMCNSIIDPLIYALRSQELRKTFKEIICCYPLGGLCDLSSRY
Chain of hMC5-R (human) (P33032 whole entry): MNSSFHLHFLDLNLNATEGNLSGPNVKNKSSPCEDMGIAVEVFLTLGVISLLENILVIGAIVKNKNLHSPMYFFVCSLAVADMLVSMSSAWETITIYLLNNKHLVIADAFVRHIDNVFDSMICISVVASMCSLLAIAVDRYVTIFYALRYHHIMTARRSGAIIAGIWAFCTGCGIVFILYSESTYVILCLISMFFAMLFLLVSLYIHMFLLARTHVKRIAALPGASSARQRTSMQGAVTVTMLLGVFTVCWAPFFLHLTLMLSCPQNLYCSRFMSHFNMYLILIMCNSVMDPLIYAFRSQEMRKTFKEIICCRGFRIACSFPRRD

Substance	Percent Inhibition At 1 µM concentration (hMC4-R (human)) [%]	Percent Inhibition At 1 µM concentration (hMC5-R (human)) [%]	Percent Inhibition At 1 µM concentration (hMC3-R (human)) [%]
Ac-Nle-cyclo(-Asp-His-D-Phe-D-Arg-Trp-Lys)-OH (peptide)	4	–	–
Ac-Nle-cyclo(-Asp-D-His-D-Phe-Arg-Trp-Lys)-OH (peptide)	9	8	–
Ac-Nle-cyclo(-Asp-His-Phe-Arg-Trp-Lys)-OH (SEQ ID NO:2) (peptide)	4	7	–
Ac-Nle-cyclo(-Asp-His-D-Phe-Orn-Trp-Lys)-OH (peptide)	–	–	6
